Assay results as given in patent US20180273626A1 (published 2018).

Biological target: T1, FcεRIα (human, UniProt P12319 26-201)
T1 chain: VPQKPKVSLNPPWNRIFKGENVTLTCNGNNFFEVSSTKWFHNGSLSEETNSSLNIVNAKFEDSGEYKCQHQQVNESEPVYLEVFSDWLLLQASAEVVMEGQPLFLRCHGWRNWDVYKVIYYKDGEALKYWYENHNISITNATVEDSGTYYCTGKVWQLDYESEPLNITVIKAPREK
Assay: SPR; mammalian derived

Kd: 2.26 nM
B1: IgE-R419N-Fc3-4 (other)
chain: CADSNPRGVSAYLSRPSPFDLFIRKSPTITCLVVDLAPSKGTVNLTWSRASGKPVNHSTRKEEKQRNGTLTVTSTLPVGTRDWIEGETYQCNVTHPHLPRALMRSTTKTSGPRAAPEVYAFATPEWPGSRDKRTLACLIQNFMPEDISVQWLHNEVQLPDARHSTTQPRKTKGSGFFVFSRLEVTRAEWEQKDEFICRAVHEAASPSQTVQRAVSVNP
modifications: additional N-linked glycan at N419 (Asn-92 of SEQ ID NO: 2)
